This data set deals with the molecule itself. The data set is described as follows: cryo-EM structure.

Consider one protein from publication PMC12630689 (Nature Communications, 2025).

B1: Shaker-IR-I384R (Shaker zH4 K+ channel with fast inactivation removed, Δ6-46, with the I384R mutation) (natural protein, UniProt P08510 1-655, looked up)
chain: MAAVALREQQLQRNSLDGYGSLPKLSSQDEEGGAGHGFGGGPQHFEPIPHDHDFCERVVINVSGLRFETQLRTLNQFPDTLLGDPARRLRYFDPLRNEYFFDRSRPSFDAILYYYQSGGRLRRPVNVPLDVFSEEIKFYELGDQAINKFREDEGFIKEEERPLPDNEKQRKVWLLFEYPESSQAARVVAIISVFVILLSIVIFCLETLPEFKHYKVFNTTTNGTKIEEDEVPDITDPFFLIETLCIIWFTFELTVRFLACPNKLNFCRDVMNVIDIIAIIPYFITLATVVAEEEDTLNLPKAPVSPQDKSSNQAMSLAILRVIRLVRVFRIFKLSRHSKGLQRLGRTLKASMRELGLLIFFLFIGVVLFSSAVYFAEAGSENSFFKSIPDAFWWAVVTMTTVGYGDMTPVGVWGKIVGSLCAIAGVLTIALPVPVIVSNFNYFYHRETDQEEMQSQNFNHVTSCPYLPGTLGQHMKKSSLSESSSDMMDLDDGVESTPGLTETHPGRSAVAPFLGAQQQQQQPVASSLSMSIDKQLQHPLQQLTQTQLYQQQQQQQQQQQNGFKQQQQQTQQQLQQQQSHTINASAAAATSGSGSSGLTMRHNNALAVSIETDV
Turning to B1, the stoichiometry N (as a rule, a count of units in the complex or per binding partner) amounted to 4.
